The values below come from patent US20140178375A1 (TRUSTEES OF THE UNIVERSITY PF PENNSYLVANIA, published 2014).

Substitutions are numbered along the chain they refer to. Names may count otherwise.

Assay [1] deals with T1, human EGFR on NE91 cells (human, UniProt P00533 25-1210).
T1 construct: whole, on cells; also called epidermal growth factor receptor
Put plainly: FACS, 100 ug S22-Fc on 1x10^5 cells, anti-His detection. Here is the method: FACS analysis was used to detect binding of S22-Fc to HER2-expressing cell lines. Purified S22-Fc was used in FACS experiments to stain cells with different expression levels of HER2 and EGFR. Initially, 1×10⁵ cells were incubated with 100 μg S22-Fc for 30 minutes on ice. The cells were then washed and incubated with his-tag-specific rabbit antisera and secondary Alexa488-conjugated anti-rabbit antibodies, used sequentially. As a negative control, parallel cell preparations were exposed to only his-tag-specific rabbit antisera and secondary antibodies.

The target of assay [2] is T2, human HER2 on T6-17 cells (human, UniProt P04626 23-1255).
T2 construct: whole, on cells; also called HER2/neu; human epidermal growth factor receptor 2
Put plainly: FACS on T6-17 cells expressing human HER2, detected by anti-his tag and secondary antibodies; control (anti-his tag and secondary antibodies only) has Geo mean 3.99.

In assay [3] the target is T1, human EGFR on NE91 cells. Put plainly: FACS on NE91 cells.
For assay [4], the target named is T2, human HER2 on T6-17 cells. Put plainly: FACS on T6-17 cells.

B1: S22-Fc (Fc fusion)
chain: MAYCFPDEEGACYGGGGGSDKTHTCPPCPAPELLGGPSVFLFPPKPKDTLMISRTPEVTCVVVDVSHEDPEVKFNWYVDGVEVHNAKTKPREEQYNSTYRVVSVLTVLHQDWLNGKEYKCKVSNKALPAPIEKTISKAKGQPREPQVYTLPPSRDELTKNQVSLTCLVKGFYPSDIAVEWESNGQPENNYKTTPPVLDSDGSFFLYSKLTVDKSRWQQGNVFSCSVMHEALHNHYTQKSLSLSLEHHHHHH
notes: S22 peptide, glycine-serine linker, human IgG1 Fc (hinge part, CH2, CH3) and C-terminal His tag; Expressed in E. coli and purified on Ni-sepharose; also called S22-Fc fusion protein
Regarding B1, the binding result with human EGFR on NE91 cells [1] is given as “binds”. Also, the “FACS Geo mean” value in assay [2] stood at 27.2.

B2: S22-FcT322A (Fc fusion)
chain: B1 chain with T98A
Turning to B2, the binding result (with human EGFR on NE91 cells [3]; in assay [4]) was “binds” in each case.

B3: LS22FcT322AG7 (Fc fusion)
chain: MLCGGGGYCFPDEEGACYGGGGGSDKTHTCPPCPAPELLGGPSVFLFPPKPKDTLMISRTPEVTCVVVDVSHEDPEVKFNWYVDGVEVHNAKTKPREEQYNSAYRVVSVLTVLHQDWLNGKEYKCKVSNKALPAPIEKTISKAKGQPREPQVYTLPPSRDELTKNQVSLTCLVKGFYPSDIAVEWESNGQPENNYKTTPPVLDSDGSFFLYSKLTVDKSRWQQGNVFSCSVMHEALHNHYTQKSLSLSLEHHHHHH
notes: It has the N-terminal MLCGGGG before the S22 peptide, the T322A Fc and a His tag; also called S22-FcT322A#2; S22FcT322A#2
B3: in the assay with human EGFR on NE91 cells [3], the binding result is reported as “binds”. Besides, the “FACS Geo mean” value in assay [2] came out at 39.1.

B4: LS22FcT322AS7 (Fc fusion)
S22 peptide-Fc fusion chain with C-terminal His tag: B3 chain with G7S
Consider B4, for which the “FACS Geo mean” value in assay [2] turned out to be 28.7.

B5: LS22FcG7 (Fc fusion)
chain: B3 chain with A103T
notes: Wild type Fc fragment with the N-terminal MLCGGGG before the S22 peptide, and a His tag
For the molecule B5, in assay [2], the “FACS Geo mean” value worked out at 51.
